Columns and labels:
[1] = system: PcrV-negative A549 cells; test: Cross-reactivity to PcrV-negative A549 cells by FACS; format: cell-based, human; details: FIGS. 4A-4E, compared with no antibody and V2L2-MD
Procedure: Cross-reactivity to A549 cells: Using FACS, parental antibody 13-42, optimized antibodies 7C1, 7B1, 8C1, 6D10 as well as V2L2-MD were tested for cross-reactivity to PcrV-negative A549 cells.

[2] = system: PcrV; test: BIACORE binding to PcrV; parameters: species or system Pseudomonas aeruginosa; details: data not shown
Procedure: The association constant (ka), dissociation constant (kd) and the equilibrium dissociation constant (kD) for binding of optimized anti-PcrV mAb clones 7B1, 7C1, 8C1, 6D10 and reference antibody V2L2-MD to PcrV were tested by BIACORE (GE company).

[3] = system: P. aeruginosa (PA103 strain); test: Therapeutic mouse acute pneumonia model, survival; format: in vivo, BALB/c mice; details: i.v. 1 h post-infection, 1 mg/kg or 10 mg/kg; 1*LD90; 6 days
Procedure: In a therapeutic model, to induce acute pneumonia, 7-8 week old BALB/c mice (Vital River Laboratory) were intranasally inoculated with P. aeruginosa (PA103 strain) suspended in a 40 μl inoculum at a lethal dose (1*LD90=8×10^5 CFU). Antibodies or PBS were administered intravenously (i.v.) at 1 h post-infection, at a dose of 1 mg/kg or 10 mg/kg mouse weight. Mouse survival was recorded for up to 6 days post-infection.

[4] = system: BV particles; test: Cross-reactivity to BV particles by ELISA; format: binding; details: FIG. 3
Procedure: Cross-reactivity to BV particles: Using ELISA, optimized antibodies 7C1, 7B1, 8C1, 6D10, and reference antibodies V2L2-MD and Mab166 were tested for cross-reactivity to BV particles according to the method described previously (See Hötzel I, et al, 2012, mAbs 4:6, 753-760).

[5] = system: P. aeruginosa (PA103 strain); test: Prophylactic mouse acute pneumonia model, organ burden; format: in vivo, BALB/c mice; details: 10 mg/kg i.p. 24 hr before infection, 0.5*LD90
Procedure: In a prophylactic model, 7-8 week old BALB/c mice (Vital River Laboratory) were administered with antibodies or PBS intraperitoneally (i.p.) 24 hr before infection, at 10 mg/kg mouse weight. To induce acute pneumonia, the BALB/c mice were intranasally inoculated with P. aeruginosa (PA103 strain) suspended in a 40 μl inoculum at half the lethal dose (0.5*LD90; 3×10^5 CFU). 24 hours post-infection, mice were euthanized, where the lungs, spleens and kidneys were extracted, homogenized and diluted before plating on agar to measure the viable bacteria units (in CFU), which represented the P. aeruginosa burden in the respective organ sample.

[6] = rat, in vivo, iv
Procedure: Pharmacokinetic profile in rat: 40 healthy adult rats (about 0.2 kg by weight) were equally into two groups, where each group registered similar average weight. One group was injected intravenously with 30 mg/kg of V2L2-MD, 7C1, 7B1, 8C1 or 6D10 and the other group was injected intravenously with 3 mg/kg of V2L2-MD, 7C1, 7B1, 8C1 or 6D10. Blood was collected at […], and subsequently at 0 hour, 0.5 hour, 2 hour, 8 hour, 1 day, 3 days, 7 days, 11 days, 17 days, 23 days, 31 days, 41 days and 52 days after injection. After centrifugation, the plasma was used for analyzing antibody concentration using ELISA. For the ELISA experiment, synthetic PcrV was used to coat the wells of a 96-well plate. On the following day, after washing with PBST, blocking with 200 μL PBS-milk for an hour, and another wash with PBST, the plasma was added and incubated for an hour at 37° C. The plate was washed with 0.1% TBST for 6 times before 100 μL of Goat-anti-human Fc antibody-AP (1:3000 in PBS) was added to each well and incubated for an hour. After washing with 0.1% TBST for 6 times, 50 μL of pNPP was added to each well and color was developed for 10-20 minutes at 37° C. The signals were read by a microplate reader at 410 nm.

[7] = system: PcrV mutants (with mutations at position 225); test: Binding to PcrV mutants with mutations at position 225; parameters: species or system Pseudomonas aeruginosa; details: data not shown
Procedure: To further illustrate the optimized antibodies could broadly neutralize P. aeruginosa strains, the abilities of these antibodies to bind various forms of PcrV mutants were tested. Briefly, 100 PcrV sequences were randomly selected from Genebank database. In contrast to the wild type sequence as shown in SEQ ID No: 71, 13% of the selected sequences contained R, G, or K at position 225 (as compared of S in the wild type sequence SEQ No: 71), which was the main mutation around the epitope of 7B1.
These findings further illustrate that the optimized anti-PcrV antibodies could neutralize a broad spectrum of P. aeruginosa strains, which might express various forms of PcrV mutants.

[8] = system: Strain 57/66(O6) P. aeruginosa; test: RBC lysis inhibition assay, strain 57/66(O6); format: cell-based, Pseudomonas aeruginosa; details: Table 7
Procedure: Monoclonal scFv antibodies were selected and assessed for biological activity by RBC lysis assay. Briefly, red blood cells (RBCs) were prepared from fresh whole human or rabbit blood by centrifugation, supplemented with EDTA and rinsed with multiple phosphate-buffered saline (PBS) washes. Washed RBCs (2.5% [vol/vol] final) in Dulbecco's modified Eagle's medium (DMEM) plus 10% fetal bovine serum (FBS) (Gibco) and purified anti-PcrV antibodies diluted in PBS were combined into wells of a round-bottom 96-well plate. Strain 57/66(O6) P. aeruginosa was grown to mid-log phase in 2× YT medium (Oxford), harvested by centrifugation, and resuspended in DMEM-fetal bovine serum (FBS) at an optical density at 600 nm (OD600) of 0.15. Ten microliters of bacterial suspension was added to the RBC-antibody mixture, mixed by agitation, and incubated for 3 hours at 37° C. and 5% CO2. The plates were briefly centrifuged (1000 rpm, 1 min) to pellet the intact RBCs, the supernatants transferred to a flat-bottom 96-well plate, and the OD405 was measured to detect any lysis, from which the relative amount of lysis inhibition was calculated and plotted. IC50 values for the antibodies were also determined.
The ability of optimized anti-PcrV mAb clones 7B1, 7C1, 8C1, 6D10, 6A10, 5B3, 3B12, 4A10, 2B1, 7B2, 3H10, 3G3, 9B12, 3A9, 2D3, 7B1-1F5, to inhibit red blood cell lysis was compared to the parental 13-42 mAb and the reference antibody V2L2-MD. RBC lysis inhibition assay was performed as described in Example 1.
The optimized anti-PcrV mAb clones 7C1, 8C1, and 7B1 were further analyzed for their abilities to inhibit red blood cell lysis by various strains of P. aeruginosa, namely strains O1-52/66, O16-177/81, and O6-57/66, as compared to the parental 13-42 mAb and the reference antibody V2L2-MD. RBC lysis inhibition assay was performed as described in Example 1.

B1: 6D10: optimized anti-PcrV mAb clone; VH SEQ ID NO: 61, VL SEQ ID NO: 65 (antibody, V domains shown)
VH: EVQLLESGGGLVQPGGSLRLSCTASGFTFSDYPMSWVRQAPGKGLDWVSGISESGGSTNYADSVKGRFSTSRDNSKSTLYLDMNSLRAEDTAIYYCAKGRFSTDSSHFYRAVYGMDVWGQGTAVTVSS
VL: DIQLTQSPSSLSASVGDRVTITCRASQGISSYLAWYQQKPGKAPKLLIYAASTLQSGVPSRFSGSGSGTDFTLTISSLQPEDFATYYCQQLSSYPLSFGGGTKVEIK
Q: With B1 as the molecule, how does the “binding to PcrV-negative A549 cells” value [1] read?
A: similarly low levels of A549 binding

Q: What about the “association and dissociation kinetics in PcrV binding (ka and kd values)” value [2] of the same molecule?
A: comparable association and dissociation kinetics

Q: What about the “survival improvement relative to V2L2-MD” value [3] of the same molecule?
A: survival improvement comparable to that of V2L2-MD

Q: And the “non-specific binding to BV particles” value [4]?
A: low levels of non-specific binding

Q: And the “reduction of organ burden in the lung, spleen and kidney relative to HIV-10E8” value ([5]; FIG. 8B)?
A: higher efficacy in reducing organ burden

Q: What about the “reduction of organ burden in the lung, spleen and kidney relative to V2L2-MD” value ([5]; FIG. 8B) of the same molecule?
A: comparable efficacy in reducing organ burden

Q: What about the “half-lives relative to reference antibody V2L2-MD” value [6] of the same molecule?
A: comparable to or longer than that of reference antibody V2L2-MD

Q: And the “binding to PcrV mutants with R, G or K at position 225” value [7]?
A: strongly bind these mutants

B2: 13-42: lead parental full-length human IgG1 anti-PcrV antibody; VH SEQ ID NO: 48, VL SEQ ID NO: 65 (antibody, V domains shown)
VH: EVQLLESGGGLVQPGGSLRLSCTASGFTFSDYPMSWVRQAPGKGLDWVSGISESGGSTNDADSVKGRFSTSRDNSKSTLYLDMNSLRAEDTAIYYCAKGRFCTNSSCFFRAVYGMDVWGQGTAVTVSS
VL: DIQLTQSPSSLSASVGDRVTITCRASQGISSYLAWYQQKPGKAPKLLIYAASTLQSGVPSRFSGSGSGTDFTLTISSLQPEDFATYYCQQLSSYPLSFGGGTKVEIK
Q: For B2, which “binding to PcrV-negative A549 cells” value [1] is on record?
A: similarly low levels of A549 binding

Q: And the “reduction of organ burden in the lung relative to V2L2-MD” value ([5]; 24 hours post-infection, FIG. 8A)?
A: better efficacy in reducing organ burden in the lung

B3: 9B12: optimized anti-PcrV mAb clone; VH SEQ ID NO: 64, VL SEQ ID NO: 67 (antibody, V domains shown)
VH: EVQLLESGGGLVQPGGSLRLSCTASGFTFSDNPMSWVRQAPGKGLDWVSVISESGGSTNDADSVKGRFSTSRDNSKSTLYLDMNSLRAEDTAIYYCAKGRFSTNSDHFYRAVYGMDVWGQGTAVTVSS
VL: DIQLTQSPSSLSASVGDRVTITCRASQGISSYLAWYQQKPGKAPKLLIYAASTLQSGVPSRFSGSGSGTDFTLTISSLQPEDFATYYCQQLSSYPLTFGGGTKVEIK
Q: For B3, which “RBC lysis assay IC50” value [8] is on record?
A: 0.07 µg/mL

B4: 7B1-1F5: optimized anti-PcrV mAb clone; VH SEQ ID NO: 62, VL SEQ ID NO: 70 (antibody, V domains shown)
VH: EVQLLESGGGLVQPGGSLRLSCTASGFTFSDNYMSWVRQAPGKGLDWVSVISESGGSTNYADSVKGRFSTSRDNSKSTLYLDMNSLRAEDTAIYYCAKGRFSTLSSHFFRAVYGMDVWGQGTAVTVSS
VL: DIQLTQSPSSFSASTGDRVTITCRASQGISSYLAWYQQKPGKAPKVLIYAASTLQSGVPSRFSGSGSGTEFTLTISSLQPEDFATYYCQQLKSYPLTFGGGTKLEIK
Q: Which “RBC lysis assay IC50” value [8] does the source give for B4 here?
A: 0.19 µg/mL

B5: 2D3: optimized anti-PcrV mAb clone; VH SEQ ID NO: 53, VL SEQ ID NO: 65 (antibody, V domains shown)
VH: EVQLLESGGGLVQPGGSLRLSCTASGFTFSDNHMSWVRQAPGKGLDWVSGISESGGSTYYADSVKGRFSTSRDNSKSTLYLDMNSLRAEDTAIYYCAKGRFSYDTRHFFRAVYGMDVWGQGTAVTVSS
VL: DIQLTQSPSSLSASVGDRVTITCRASQGISSYLAWYQQKPGKAPKLLIYAASTLQSGVPSRFSGSGSGTDFTLTISSLQPEDFATYYCQQLSSYPLSFGGGTKVEIK
Q: With B5 as the molecule, how does the “RBC lysis assay IC50” value [8] read?
A: 0.05 µg/mL

— patent US12448434B2, “Antibodies specifically recognizing Pseudomonas PcrV and uses thereof” (priority 2019, dated 2025)
